Blank lines part the entries; values can stand above or below the molecule they belong to.
Key:
[1] = molecular target: human GLP1 receptor (on HEK293-CNG-HuGLP1R stable cells) (human) (UniProt P43220); experiment: cell-based or functional assay
[2] = molecular target: human GLP1 receptor (on HEK293-CNG-HuGLP1R stable cells) (human, UniProt P43220 24-463); experiment: cell-based or functional assay

EC50, cAMP bioassay on HEK293-CNG-HuGLP1R cells [1]: 22 nM
Molecule: Eli Lilly Trulicity (Lot#02448599) (Fc fusion)

EC50, cAMP bioassay on HEK293-CNG-HuGLP1R cells (after Factor Xa predigestion) [2]: 17.6 nM
B1: p9: hGLP1R ECD (1-116)-3xG4S-RGER-Trulicity (lot U2243DL140-14/P9EA001) (Fc fusion)
chain: RPQGATVSLWETVQKWREYRRQCQRSLTEDPPPATDLFCNRTFDEYACWPDGEPGSFVNVSCPWYLPWASSVPQGHVYRFCTAEGLWLQKDNSSLPWRDLSECEESKGGGGSGGGGSGGGGSRGERHGEGTFTSDVSSYLEEQAAKEFIAWLVKGGGGGGGSGGGGSGGGGSAESKYGPPCPPCPAPEAAGGPSVFLFPPKPKDTLMISRTPEVTCVVVDVSQEDPEVQFNWYVDGVEVHNAKTKPREEQFNSTYRVVSVLTVLHQDWLNGKEYKCKVSNKGLPSSIEKTISKAKGQPREPQVYTLPPSQEMTKNQVSLTCLVKGFYPSDIAVEWESNGQPENNYKTTPPVLDSDGSFFLYSRLTVDKSRWQEGNVFSCSVMHEALHNHYTQKSLSLSLG

Reference: patent US20220267402A1 (SERPENTIDE, published 2022)
